The text below walks through data of patent publication US20260008856A1, “METHODS OF TREATING DISEASE USING ANTI-IL1RAP ANTIBODIES AND ANTIBODY DRUG CONJUGATES” (Bluefin Biomedicine, Inc., priority 2022, published 2026).

One experiment concerns MOLT3. Description: Flow cytometry binding to endogenous cell line MOLT3. Format: cell-based. On the set-up: key: (−): No binding; (+): Weak binding; (++): Moderate binding; (+++): Strong binding. Particulars: primary antibody 1 ug/ml. How it is done: (§1) Staining for flow cytometry was performed in 1× cold PBS with 0.5% BSA. Primary antibodies (1 ug/ml) were incubated with live cells on ice for 30 minutes, after a brief wash, cells were incubated with Alexa Fluro® 488-conjugated anti-human IgG secondary antibody @1:1000 (709-546-149, Jackson ImmunoResearch). Acquisition of the data was performed on a MACSQuant® Flow Cytometers (Miltenyi Biotec) and analyzed with FlowJo software.
Background: Flow cytometry measures light scatter and fluorescence of single cells or particles in a stream.

For a further experiment, the system named is EOL-1. Description: Flow cytometry binding to endogenous cell line EOL-1. Particulars: primary antibody 1 ug/ml. Set-up: key to binding to EOL-1 by flow cytometry: (−): No binding; (+): Weak binding; (++): Moderate binding; (+++): Strong binding. Format: cell-based, human. As to the method: as §1
(§2) Over 1,000 hits were identified that bind strongly to CHO-human IL1RAP, but not parental CHO cells. 68 clones were selected for molecular cloning. Based on unique CDR3 sequences from the heavy chain variable domain, 35 antibodies from 13 families were confirmed by binding in IL1RAP positive cell lines EOL1 and Karpas 299 (see Table 8) by flow cytometry (MACSQuant® www.miltenybiotec.com).

The next experiment relates to Karpas 299. Description: Flow cytometry binding to endogenous cell line Karpas 299. Format: cell-based, human. Set-up: key to binding to Karpas 299 by flow cytometry: (−): No binding; (+): Weak binding; (++): Moderate binding; (+++): Strong binding. Particulars: primary antibody 1 ug/ml. As to the method:
as §1, §2

The target in another experiment is T1, recombinant human IL1RAP (Homo sapiens, UniProt Q9NPH3).
T1 construct: MBP-IL1RAP(S21-T367)-; 8xHis (C); made in house; host or cells: CHO (ExpiCHO transient expression)
Description: Binding competition binning on Octet. To be noted: Protein A biosensors. As to the method: Binding Competition binning: Binding competition among different antibodies was determined using a real-time, interferometry assay on an Octet Red™ instrument with Protein A-conjugated biosensors. To assess whether two antibodies competed for binding to a recombinant IL1RAP protein, the assay was performed as follows. Protein A biosensors were first submerged into wells containing 10 ug/mL of individual monoclonal antibodies for 5 minutes. Following the capture step, the biosensors were dipped briefly (15 seconds) into buffer and then any unoccupied sites on the biosensor were saturated by submerging them for 5 minutes into wells containing 100 ug/mL of an irrelevant monoclonal antibody. The Octet™ biosensors were then dipped briefly (15 seconds) in buffer before immersion for 1 minute into wells containing recombinant IL1RAP. The biosensors were dipped briefly (15 seconds) in buffer before immersion for 1 minute into wells containing a second recombinant antibody.
For the control case where the second antibody was the same as the first, there was no increase in signal, because there was no additional binding to the recombinant target.
For the control case where buffer was used instead of the first antibody, no recombinant target bound the non-quenching antibody on the biosensor and no second antibody bound the biosensor.
Selected antibodies were evaluated in pairs for their ability to simultaneously bind recombinant human IL1RAP. The analysis was performed by Octet™ loaded with Protein A Biosensors. A total of five different bins were determined as follows.
A general note: BLI is a label-free optical method that tracks binding on a fibre tip over time.

B1: 31F9_21A1: human anti-IL1RAP antibody, VH SEQ ID NO: 118, VL SEQ ID NO: 120 (antibody, V domains shown)
VH: QVQLVESGGGMVQPGRSLRLSCTASGFTFSSHGMHWVRQAPGKGLEWVAVIWFDGSNEYYVDSVKGRFTISRDNSKNTLYLQMNSLRAEDTAVYYCARENVYGSGWFFDYWGQGTLVTVSS
VL: EIVMTQSPATLSVSPGERASLSCRASQSVGSNLAWYQQKPGQAPRLLIFGASTRATGIPARFSGSRSGTEFTLTISSLQSEDFALYYCQQYNNWPPWTFGQGTKVEIK
Regarding B1, the “binding to MOLT3 by flow cytometry” value in the experiment with MOLT3 is reported as “(+)”. For the same molecule, the “binding to EOL-1 by flow cytometry” value in the experiment with EOL-1 is recorded as “(+++)”.

B2: 32D4_21D6: human anti-IL1RAP antibody, VH SEQ ID NO: 121, VL SEQ ID NO: 122 (antibody, V domains shown)
VH: QLQLVESGGGVVQPGRSLRLSCAASGFTFSSYGMHWVRQAPGKGLEWVAVIWYDGSSEYYADSVKGRFTISRDNSKNTLYLQMNSLRAEDTAVYYCARENVYGSGWFFDYWGQGTLVTVSS
VL: EIVMTQSPATLSVSPGERASLSCRASQSVGSNLAWYQQKPGQAPRLLIFGASTRATGIPARFSGSRSGTEFTLTISSLQSEDFALYYCQQYNNWPPWTFGQGTKVEIK
For B2, in the experiment with MOLT3, the “binding to MOLT3 by flow cytometry” value was “(+)”. Besides, the “binding to EOL-1 by flow cytometry” value in the experiment with EOL-1 is listed as “(+++)”.

B3: 35D11_22A1: human anti-IL1RAP antibody, VH SEQ ID NO: 127, VL SEQ ID NO: 128 (antibody, V domains shown)
VH: QLQLVESGGGVVQPGRSLRLSCAASGFTFSSYGMHWVRQAPGKGLEWVAVIWYDGSSEYYADSVKGRFTISRDNSKNTLFLQMNSLRADDTAVYYCARENVYGSGWFFDYWGQGTLVTVSS
VL: EIVMTQSPATLSVSPGERASLSCRASQSVGSNLAWYQQKPGQAPRLLIFGASTRATGIPARFSGSRSGTEFTLTISSLQSEDFALYYCQQYDNWPPWTFGQGTKLEIK
With B3, the “binding to MOLT3 by flow cytometry” value with MOLT3 was “(+)”. Besides, the “binding to EOL-1 by flow cytometry” value with EOL-1 is reported as “(+++)”.

B4: 32F9_21A5: human anti-IL1RAP antibody, VH SEQ ID NO: 123, VL SEQ ID NO: 124 (antibody, V domains shown)
VH: QLQLVESGGGVVQPGRSLRLSCAASGFTFSSHGMHWVRQAPGKGLEWVAVIWYDGSSEYYADSVKGRFTISRDNSKNTLYLQMNSLRAEDTAVYYCARENVYGSGWFFDYWGQGSLVTVSS
VL: EIVMTQSPATLSVSPGERASLSCRASQSVGSNLAWYQQKPGQAPRLLIFGASTRATGIPARFSGSRSGTEFTLTISSLQSEDFALYYCQQYNNWPPWTFGQGTKLEIK
On to B4, for which the “binding to MOLT3 by flow cytometry” value in the experiment on MOLT3 is “(+)”. Further, the “binding to EOL-1 by flow cytometry” value in the experiment on EOL-1 is “(+++)”.

B5: 33E9_21A6: human anti-IL1RAP antibody, VH SEQ ID NO: 125, VL SEQ ID NO: 126 (antibody, V domains shown)
VH: QLQLVESGGGVVQFGRSLRLSCAASGFTFSSHGMHWVRQAPGKGLEWVAVIWYDGSSEYYADSVKGRFTISRDNSKNTLYLQMNSLRAEDTAVYYCARENVYGSGWFFDYWGQGTLVTVSS
VL: EIVMTQSPATLSVSPGERASLSCRASQSVGSNLAWYQQKPGQAPRLLIFGASTRATGIPARFSGSRSGTEFTLTISSLQSEDFALYYCQQYNNWPPWTFGQGTKLEIK
With B5, the “binding to MOLT3 by flow cytometry” value in the experiment on MOLT3 is given as “(+)”. Further, the “binding to EOL-1 by flow cytometry” value in the experiment with EOL-1 was “(+++)”.

B6: 34D1_21B3: human anti-IL1RAP antibody, VH SEQ ID NO: 136, VL SEQ ID NO: 137 (antibody, V domains shown)
VH: QGQLVESGGGVVQPGRSLRLSCAASGFTFSSYTLHWVRQAPGKGLEWVAVIWYDGSNKYYVDSVKGRFTISRDNSKNTLYLQMNSLRAEDTAVYYCAREYGSGSYYNVYYGMDVWGQGTTVTVSS
VL: DIVMTQSPLSLPVTPGEPASISCRSSQSLLHSNGYKYLDWYLQKAGQSPHLLIYLGSNRASGVPDRFSGSGSGTDFTLKISRVEAEDVGFYYCMQTLQIPLTFGGGTKLEIK
As for B6, the “binding to MOLT3 by flow cytometry” value with MOLT3 is listed as “(+)”. Besides, in the experiment with EOL-1, the “binding to EOL-1 by flow cytometry” value is “(+++)”. In addition, the “binding to Karpas 299 by flow cytometry” value with Karpas 299 is “(++)”.

B7: 10C8_15A1: human anti-IL1RAP antibody, VH SEQ ID NO: 9, VL SEQ ID NO: 13 (antibody, V domains shown)
VH: QVQLVESGGGVVQPGRSLRISCAASGFTFRSYGMHWVRQAPGKGLEWVAIIWHDESYKYYVDSVKGRFTISRDNSKNTLYLQMNSLRAEDTAVYYCARGDYYGSGSYYDAFDIWGQGTMVTVSS
VL: DIQMTQSPSSLSASVGDRVIITCRASQGISNYLAWFQQKPGKCPNLLIYAASTLRSGVPSRFSGSGSGTDFTLTISSLQPEDVATYYCQKYNSAPYTFGQGTKVEIK
For the molecule B7, the “binding to MOLT3 by flow cytometry” value in the experiment on MOLT3 was “(−)”. Moreover, in the experiment with recombinant human IL1RAP, the “competition for binding, bin (2)” value is reported as “competed with each other”. Moreover, in the experiment on EOL-1, the “binding to EOL-1 by flow cytometry” value is recorded as “(+++)”.

B8: 38E10_21C3: human anti-IL1RAP antibody, VH SEQ ID NO: 74, VL SEQ ID NO: 78 (antibody, V domains shown)
VH: EVQLLESGGGLVQPGGSLRLSCAASGFTFSNYAMTWVRQAPGKGLEWVSSISISRAGTYYADSVKGRFTISRDNSKNTLNLQMNSLRAEDTAEYYCAREYYYGMDVWGQGTTVTVSS
VL: EIVLTQSPATLSLSPGERATLSCRASQSVSSYLAWYQQKPGQTPRLLIYDASNRATGIPARFSGSGSGTDFTLTISSLETEDFAVYYCQQLINWPLTFGGGTKLEIK
In the case of B8, in the experiment on MOLT3, the “binding to MOLT3 by flow cytometry” value is reported as “(+)”. In addition, in the experiment with recombinant human IL1RAP, the “competition for binding, bin (1)” value is “competed with each other”. The “binding to EOL-1 by flow cytometry” value in the experiment with EOL-1 was “(+++)”.

B9: 32C12_21A4: human anti-IL1RAP antibody, VH SEQ ID NO: 32, VL SEQ ID NO: 36 (antibody, V domains shown)
VH: QVQLVESGGGVVQPGRSLRLSCAASGFTFRNYGIHWVRQAPGKGLEWVAVIWYDGSNKFYADSVKGRFTISRDNSKNTLYLQMNSLRVEDTAVYYCAREEGIAVAPFDYWGQGTLVTVSS
VL: DIQMTQSPSSLSASVGDRVAITCRANQSIASYLNWYQQKPGKAPKLLIYGASSLQNGVPSRFSGSGSRTDFTLTISSLQPEDFATYYCQQSYSTEITFGQGTRLEIK
Turning to B9, in the experiment on MOLT3, the “binding to MOLT3 by flow cytometry” value is “(+)”. In addition, the “competition for binding, bin (2)” value in the experiment with recombinant human IL1RAP is “competed with each other”. Also, in the experiment on EOL-1, the “binding to EOL-1 by flow cytometry” value was “(+++)”.

B10: 41G4_15B6: human anti-IL1RAP antibody, VH SEQ ID NO: 116, VL SEQ ID NO: 36 (antibody, V domains shown)
VH: QVQLVESGGGVVQPGRSLRLSCAASGFTFRNYGMHWVRQAPGKGLEWVAVIWYDGSNKFYADSVKGRFTISRDNSKNTLYLQMNSLRVEDTAVYYCAREEGIAVAPFDYWGQGTLVTVSS
VL: DIQMTQSPSSLSASVGDRVAITCRANQSIASYLNWYQQKPGKAPKLLIYGASSLQNGVPSRFSGSGSRTDFTLTISSLQPEDFATYYCQQSYSTEITFGQGTRLEIK
In the case of B10, the “binding to EOL-1 by flow cytometry” value with EOL-1 is given as “(+++)”.

B11: 36A12_21C1: human anti-IL1RAP antibody, VH SEQ ID NO: 144, VL SEQ ID NO: 147 (antibody, V domains shown)
VH: EVQLVESGGGLVQPGGSLRLSCAASGFTLSFYWMTWVRQAPGKGLEWVANIKQDGNEKNYVDSVKGRFTISKDNAKKSVFLQMNSLRAEDTAVYYCAREGYFGSGYFDYWGQGTLVTVSS
VL: DIQMTQSPSTLSASVGDRVTITCRASQSINSWLAWYQQKPGKAPKLLIYKASTLESGVPSRFSGSGSGTEFTLTISSLQPDDFAPYYCQHYNSYPHTFGQGTKVEIK
As to B11, in the experiment on MOLT3, the “binding to MOLT3 by flow cytometry” value is recorded as “(+)”. In the experiment on EOL-1, the “binding to EOL-1 by flow cytometry” value was “(+++)”. Further, the “binding to Karpas 299 by flow cytometry” value in the experiment on Karpas 299 is recorded as “(+++)”.

B12: 34H8_21B4: human anti-IL1RAP antibody, VH SEQ ID NO: 185, VL SEQ ID NO: 189 (antibody, V domains shown)
VH: QVQLQESGPGLVKPSETLSLTCAVSGYSASGLYYWAWIRQPPGKGLEWIGNIYHSGRTYYNPSLESRVSISLDTSKHQVSLKLKSVTYADTAVYFCARDRFDGFDIWGQGTMVTVSS
VL: EIVMTQSPATLSVSPGERATLSCRASQTINNILAWYQQKPGQAPRLLIYGASTRATGIPARFSGSGSGTEFTLTISSLQSEDFAVYYCQQYNNWPLTFGGGTKLEIK
Regarding B12, the “binding to MOLT3 by flow cytometry” value in the experiment on MOLT3 is recorded as “(+)”. Moreover, in the experiment with EOL-1, the “binding to EOL-1 by flow cytometry” value is “(+++)”.
